Laboratory results published in the supplement of paper PMC10567573.

B1: GMCL1 (parent)
chain: FCYCAGSHKRKRSSGSFCYCHPDS
B2: DVL3 (parent)
chain: SDVVDWLYHNVEGFTDRREARKYA

Variants of: B1
Experiment: protein stability index of a GFP-peptide fusion (GPS, HEK-293T) (PSI 1-6); higher = more stable
Conditions: c terminus: a fixed tail appended
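Note: lentivirally expressed fusions sorted by FACS into six bins by GFP to DsRed ratio, PSI derived from sequencing read proportions per bin multiplied by bin number.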

Protein stability index of substitutions, site by site:
P22: Y 2.02 | W 2.27 | C 2.12 | N 2.69 | A 2.64 | F 1.38 | K 2.09 | R 2.1 | V 1.96 | H 2.29 | M 1.85 | G 2.44 | S 2.53 | I 1.47 | L 1.63 | D 2.78 | Q 1.91 | E 2.01 | T 1.32
S24: V 2.12 | A 1.94 | P 1.88 | C 1.51 | E 2.51 | F 1.61 | R 2.28 | L 1.91 | H 2.09 | I 2.03 | Y 1.84 | T 2.02 | G 2.46 | N 2.12 | Q 2.9 | W 1.38 | D 1.87 | M 1.78 | K 2.44
C20: M 2.3 | E 1.88 | Q 1.5 | V 1.91 | S 1.5 | T 1.98 | D 2.73 | A 2.01 | K 1.58 | W 1.95 | F 1.84 | R 1.68 | P 1.94 | Y 1.71 | N 1.99 | L 2.18 | H 2 | I 2.06 | G 1.99
Y19: L 1.96 | W 1.28 | M 3 | P 3.37 | R 3.17 | F 2.31 | D 2.9 | H 2.67 | G 2.52 | Q 3.03 | E 3.63 | S 3.31 | T 3.6 | I 2.52 | N 3.38 | K 3.4 | V 3.03
H21: T 2.47 | C 1.11 | Q 2.74 | M 3.12 | G 2.55 | D 2.47 | V 2.51 | R 2.54 | Y 2.43 | K 3.17 | S 2.87 | P 2.21 | W 1.63 | E 2.73 | L 2.88 | N 2.43 | I 2.69 | F 2.51 | A 2.41
D23: A 1.35 | Q 2.34 | M 2.39 | R 1.99 | I 1.83 | E 2.13 | N 1.92 | V 1.44 | H 1.88 | L 1.98 | F 2.06 | G 2.27 | P 2.86 | T 3.04 | C 1.28 | K 2.42 | Y 2.06 | S 1.94 | W 2.16

Variants of: B2
Experiment: as above
Conditions: c terminus: a fixed tail appended

Protein stability index: each site, then its substitutions
V11: T 2.67 | P 4.08 | Q 3.36 | A 2.8 | Y 3.48 | M 2.58 | F 2.46 | L 2.03 | S 2.45 | K 3.85 | N 3.83 | W 2.36 | I 2.61 | G 4.04 | H 3.6 | C 3.07 | D 3.62 | R 3.1 | E 3.53
V4: Y 3.21 | C 2.77 | N 3.89 | E 4.08 | D 3.78 | Q 3.67 | T 3.6 | W 2.44 | A 3.09 | R 3.84 | H 3.52 | P 3.81 | L 2.98 | F 3.53 | I 2.56 | G 3.84 | K 3.46 | S 3.68 | M 3.76
G13: C 2.68 | L 2.28 | H 2.56 | F 1.61 | D 3.66 | I 2.28 | E 3.3 | A 2.71 | K 2.95
L7: V 3.5 | P 3.63 | G 4.25 | F 2.12 | A 3.54 | I 3.01 | Q 4.31 | T 4.05 | D 4.58 | S 4.75 | C 3.65 | R 2.65 | E 5.12 | K 4.64 | Y 3.28 | M 3.44 | W 3.58 | H 4.68
N10: M 1.94 | Y 2.01 | L 2 | R 2.6 | D 4.09 | W 2.63 | A 2.1 | G 3.03 | V 2.58 | E 3.69 | S 3.01 | H 2.7 | F 1.75 | Q 2.91 | I 2.25 | K 2.34 | T 3.33 | C 2.1
H9: L 2.55 | F 2.14 | T 2.67 | A 2.37 | V 2.16 | Q 3.11 | I 2.09 | P 4 | R 2.8 | S 2.94 | D 3.66 | M 2.79 | W 2.42 | N 3.83 | C 2.13 | Y 3.21 | G 3.32 | K 2.67
W6: N 4.95 | M 3.82 | A 4.58 | T 4.54 | R 4.79 | H 4.21 | E 4.97 | I 4.13 | P 4.86 | K 4.38 | G 4.32 | Y 3.6 | F 2.9 | L 4.35 | V 4.58 | C 3.81 | S 4.76 | Q 4.22 | D 4.75
D5: M 2.87 | K 2.36 | E 3.6 | S 2.5 | Q 3.23 | H 2.44 | N 2.07 | I 1.82 | P 3.71 | W 1.7 | A 1.98 | C 1.84 | Y 2.53 | T 2.75 | G 3.06 | V 1.19 | L 1.41 | F 2.21
V3: L 3.15 | N 4.22 | M 3.85 | Q 4.64 | S 3.44 | D 4.59 | A 3.98 | I 2.98 | T 4.13 | W 2.04 | E 5.17 | P 4.24 | C 3.69 | F 2.07 | R 3.95 | H 3.39 | Y 3
D2: H 2.91 | C 2.16 | A 1.85 | K 2.73 | V 2.72 | G 2.89 | L 2.12 | T 2.9 | N 3.36 | M 2.09 | E 3.01 | P 2.62 | F 1.9 | R 2.23 | W 1.64 | I 2.46 | Y 2.26 | S 2.74
S1: Q 2.9 | G 3.78 | K 2 | N 3.42 | L 3.51 | H 3.27 | T 3.1 | D 3.92 | I 2 | E 3.76 | R 2.52 | P 2.15 | F 2.23 | C 2.71 | V 3.5
Y8: D 4.61 | W 2.31 | G 4.25 | Q 3.81 | T 3.63 | E 4.2 | K 3.83 | N 3.87 | I 2.39 | V 2.93 | L 2.27 | P 4.51 | S 3.56 | M 2.74 | C 3.79
E12: V 1.28 | M 2.01 | P 2.33 | T 2.63 | N 2.5 | I 1.94 | F 1.98 | Y 1.58 | R 2.78 | S 2.83 | W 2.04 | Q 2.98 | D 2.96 | G 2.37 | A 3.49 | K 3.54 | L 2.08 | H 2.88 | C 2.18
